Data as given in patent US20250034219A1 (MOZZA FOODS, published 2025).

Columns and labels:
[1] = test system: T1, recombinant B. taurus αS1-casein expressed from pMOZ1066 (GY1 signal peptide, αS1-casein, FLAG tag, 6 histidine tag, HDEL peptide)
T1 sequence: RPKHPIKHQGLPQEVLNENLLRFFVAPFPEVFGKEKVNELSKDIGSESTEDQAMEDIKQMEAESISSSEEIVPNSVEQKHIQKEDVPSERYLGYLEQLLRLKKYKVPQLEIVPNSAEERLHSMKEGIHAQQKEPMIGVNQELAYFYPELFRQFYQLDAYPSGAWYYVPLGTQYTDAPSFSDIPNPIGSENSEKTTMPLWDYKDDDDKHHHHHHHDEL

[2] = test system: T2, recombinant B. taurus β-casein expressed from pMOZ1066 (GY1 signal peptide, β-casein, FLAG tag, 6 histidine tag, HDEL peptide)
T2 sequence: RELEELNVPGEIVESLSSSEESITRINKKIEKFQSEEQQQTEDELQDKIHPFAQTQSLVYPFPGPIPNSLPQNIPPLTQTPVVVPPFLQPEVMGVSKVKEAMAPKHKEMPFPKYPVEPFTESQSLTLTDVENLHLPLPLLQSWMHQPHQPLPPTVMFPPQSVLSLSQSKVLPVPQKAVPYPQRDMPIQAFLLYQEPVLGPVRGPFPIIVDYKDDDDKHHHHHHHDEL

[3] = test system: T3, recombinant B. taurus Beta Casein expressed from pMOZ702 (signal peptide, beta casein, HA tag, 6 histidine tag, HDEL peptide)
T3 sequence: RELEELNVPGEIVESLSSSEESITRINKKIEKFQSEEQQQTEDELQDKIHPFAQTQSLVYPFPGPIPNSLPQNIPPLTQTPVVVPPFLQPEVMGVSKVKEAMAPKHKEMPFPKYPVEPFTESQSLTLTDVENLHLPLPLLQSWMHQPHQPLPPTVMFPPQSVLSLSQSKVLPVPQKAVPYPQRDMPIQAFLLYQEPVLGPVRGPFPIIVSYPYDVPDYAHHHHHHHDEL

[4] = target: T4, recombinant B. taurus Beta Casein expressed from pMOZ702 (signal peptide, beta casein, HA tag, 6 histidine tag, HDEL peptide)
T4 chain: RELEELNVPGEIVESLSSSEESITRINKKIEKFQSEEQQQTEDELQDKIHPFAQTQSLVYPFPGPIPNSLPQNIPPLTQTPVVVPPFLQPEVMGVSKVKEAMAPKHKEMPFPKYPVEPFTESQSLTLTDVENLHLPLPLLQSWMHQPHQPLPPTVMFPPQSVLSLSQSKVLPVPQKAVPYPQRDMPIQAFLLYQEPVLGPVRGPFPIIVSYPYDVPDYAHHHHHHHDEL

[5] = target: T5, recombinant B. taurus αS1-casein expressed from pMOZ1066 (GY1 signal peptide, αS1-casein, FLAG tag, 6 … (B. taurus)); experiment: TEM with FLAG immunogold labelling of soy embryos; micelle of αS1, β and κ casein in vivo
T5 construct: also called Alpha S1 casein; alphaS1 casein
T5 chain: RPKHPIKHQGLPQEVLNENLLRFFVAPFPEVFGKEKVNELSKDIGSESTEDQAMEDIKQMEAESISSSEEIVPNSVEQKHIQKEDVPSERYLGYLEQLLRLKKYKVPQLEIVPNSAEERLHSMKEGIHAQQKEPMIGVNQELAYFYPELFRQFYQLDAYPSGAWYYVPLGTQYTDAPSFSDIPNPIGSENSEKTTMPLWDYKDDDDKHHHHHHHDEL

Molecule	upward band shift of beta casein on anti-beta-casein Western blot (2 bovine kinases together, pMOZ702+pMOZ14+pMOZ15) [3]	upward band shift of beta casein on anti-beta-casein Western blot (2 human kinases together, pMOZ702+pMOZ11+pMOZ12) [4]	upward band shift of beta casein on anti-beta-casein Western blot (co-expressed with HsFam20C and HsFam20A together, pMOZ702+pMOZ11+pMOZ12) [4]	also measured
recombinant B. taurus Fam20C expressed from pMOZ1066	–	–	–	phosphorylation by mass spectrometry in 1066 milk [1]: Phosphorylation of alphaSI casein was not detected in 1066 milk (data not shown); phosphosite detected by mass spectrometry in 1066 milk [2]: only one phosphosite S50-p was detected to be phosphorylated in beta casein in both 1066 milk and raw milk (data not shown)
recombinant B. taurus Fam20A expressed from pMOZ15 (enzyme, from a related filing) MHVSSHLGPRVRSRLQPRERPLGCPCARRAASPAPGPAPSAPRRVEPSGGGDPGSKLRALFAHPLYNEPEEPPLLGPEDSLLAGPEALRYYRRKVARWNRRRKMYKEQLNLTSPEPPVQLRQEASWVQFHLGINRHGLYPRSSPVVSKLLQDMRHFPTISADYSQDEKALLGACDCSQIVKPSGVHLKLVLRFSDFGKAMFKPMRQQRDEETPEDFFYFIDFQRHNAEIAAFHLDRILDFRRVPPTVGRLVNVTREILEVTRNEILQSVFFVSPANNVCFFAKCPYMCKTEYAVCGSPHLLEGSLSAFLPSLNLAPRFSMPSPWIRSYSLAGREEWEVNPLYCEAVKQAYPHNSSSRLLNIIDMAIFDFLIGNMDRHHYEMFTKFGEDGFLIHLDNARGFGRHSHDEVSILAPLFQCCRIKRKTLLHLQLLAQADYRLSDVMRESLLEDQLSPVLTEPHLLALDRRLQTVLRTVQDCIEAHGEQSVVADGPVGQWAPDSSRANATSHDEL	In lanes containing beta casein coexpressed with 1 human kinase, 2 human kinases, 1 bovine kinase or 2 bovine kinases the bands are shifted upward on the gel relative to the sample transformed with only beta casein	–	–	–
recombinant H. sapiens Fam20C expressed from pMOZ11 (protein) LDLLPRLERRGARPSGEPGCSCAQPAAEVAAPGWAQVRGRPGEPPAASSAAGDAGWPNKHTLRILQDFSSDPSSNLSSHSLEKLPPAAEPAERALRGRDPGALRPHDPAHRPLLRDPGPRRSESPPGPGGDASLLARLFEHPLYRVAVPPLTEEDVLFNVNSDTRLSPKAAENPDWPHAGAEGAEFLSPGEAAVDSYPNWLKFHIGINRYELYSRHNPAIEALLHDLSSQRITSVAMKSGGTQLKLIMTFQNYGQALFKPMKQTREQETPPDFFYFSDYERHNAEIAAFHLDRILDFRRVPPVAGRMVNMTKEIRDVTRDKKLWRTFFISPANNICFYGECSYYCSTEHALCGKPDQIEGSLAAFLPDLSLAKRKTWRNPWRRSYHKRKKAEWEVDPDYCEEVKQTPPYDSSHRILDVMDMTIFDFLMGNMDRHHYETFEKFGNETFIIHLDNGRGFGKYSHDELSILVPLQQCCRIRKSTYLRLQLLAKEEYKLSLLMAESLRGDQVAPVLYQPHLEALDRRLRVVLKAVRDCVERNGLHSVVDDDLDTEHRAASARHDEL	–	In lanes containing beta casein coexpressed with 1 human kinase, 2 human kinases, 1 bovine kinase or 2 bovine kinases the bands are shifted upward on the gel relative to the sample transformed with only beta casein	In lanes containing beta casein coexpressed with 2 human kinases the bands are shifted upward on the gel relative to the sample transformed with only beta casein	–
recombinant B. taurus Fam20C expressed from pMOZ14 (enzyme, from a related filing) MLLPKLERSAARPSGEPGCSCAQPAAEAAAPGWAQARGHPGGELEAAASAAGDAGWPNKHTLRILQDFSSDPSSNLTSHSLEKLPPAAEAAEGAPPGQDPGVRRPPDPAHRPLPRDPGPRGPVLPPGLSGDGSLLTRLFQHPLYQVPIPPLTEGDVLFNVNSDIRFNPKAATAENPDWPHEGPEDEFLPTGEAAVDSYPNWLKFHIGINRYELYSRHNPAVGALLQDLGTQKITSVAMKSGGTQLKLIMTFQNYGQALFKPMKQTREQETPPDFFYFSDYERHNAEIAAFHLDRILDFRRVPPVAGRLVNMTKEIRDVTRDKKLWRTFFISPANNVCFYGECSYYCSTEHALCGKPDQIEGSLAAFLPDLALAKRKTWRNPWRRSYHKRKKAEWEVDPDYCEEVRQTPPYDSSHRLLDVMDMTIFDFLMGNMDRHHYETFEKFGNETFIIHLDNGRGFGKHSHDELSILVPLQQCCRIRRSTYLRLQLLAQEEHRLSLLMAEALRADRVAPVLFQPHLEALDRRLRIVLRAVGDCVEKDGLHSVVEDDLGPEHRAAAGRHDEL	In lanes containing beta casein coexpressed with 1 human kinase, 2 human kinases, 1 bovine kinase or 2 bovine kinases the bands are shifted upward on the gel relative to the sample transformed with only beta casein	–	–	–
recombinant H. sapiens Fam20A expressed from pMOZ12 (protein) QLRPRERPRGCPCTGRASSLARDSAAAASDPGTIVHNFSRTEPRTEPAGGSHSGSSSKLQALFAHPLYNVPEEPPLLGAEDSLLASQEALRYYRRKVARWNRRHKMYREQMNLTSLDPPLQLRLEASWVQFHLGINRHGLYSRSSPVVSKLLQDMRHFPTISADYSQDEKALLGACDCTQIVKPSGVHLKLVLRFSDFGKAMFKPMRQQRDEETPVDFFYFIDFQRHNAEIAAFHLDRILDFRRVPPTVGRIVNVTKEILEVTKNEILQSVFFVSPASNVCFFAKCPYMCKTEYAVCGNPHLLEGSLSAFLPSLNLAPRLSVPNPWIRSYTLAGKEEWEVNPLYCDTVKQIYPYNNSQRLLNVIDMAIFDFLIGNMDRHHYEMFTKFGDDGFLIHLDNARGFGRHSHDEISILSPLSQCCMIKKKTLLHLQLLAQADYRLSDVMRESLLEDQLSPVLTEPHLLALDRRLQTILRTVEGCIVAHGQQSVIVDGPVEQLAPDSGQANLTSHDEL	–	In lanes containing beta casein coexpressed with 1 human kinase, 2 human kinases, 1 bovine kinase or 2 bovine kinases the bands are shifted upward on the gel relative to the sample transformed with only beta casein	In lanes containing beta casein coexpressed with 2 human kinases the bands are shifted upward on the gel relative to the sample transformed with only beta casein	–
recombinant B. taurus β-casein expressed from pMOZ1066 (GY1 signal peptide, β-casein, FLAG tag, 6 histidine tag, HDEL peptide) (other, S50-p (phosphosite detected by mass spectrometry in 1066 milk; numbering not stated), Co-expressed with BtFam20C in soybean; also called Beta casein) RELEELNVPGEIVESLSSSEESITRINKKIEKFQSEEQQQTEDELQDKIHPFAQTQSLVYPFPGPIPNSLPQNIPPLTQTPVVVPPFLQPEVMGVSKVKEAMAPKHKEMPFPKYPVEPFTESQSLTLTDVENLHLPLPLLQSWMHQPHQPLPPTVMFPPQSVLSLSQSKVLPVPQKAVPYPQRDMPIQAFLLYQEPVLGPVRGPFPIIVDYKDDDDKHHHHHHHDEL	–	–	–	binding result [5]: binds
